B1: Cell division control protein 13 (Saccharomyces cerevisiae), P32797 (parent)
chain: MDTLEEPECPPHKNRIFVSSSKDFEGYPSKAIVPVQFVALLTSIHLTETKCLLGFSNFERRGDQSQEDQYLIKLKFKDRGSERLARITISLLCQYFDIELPDLDSDSGASPTVILRDIHLERLCFSSCKALYVSKHGNYTLFLEDIKPLDLVSVISTISTKSTNSSKHSSSELISECDLNNSLVDIFNNLIEMNRDEKNRFKFVKLIHYDIELKKFVQDQQKVLSQKSKAAAINPFFVPNRLGIPYIESQNEFNSQLMTLNVDEPTTDISNMGEEMHDSADPIEDSDSSTTSSTGKYFSSKSYIQSQTPERKTSVPNNWHDDDSGSKRKRKLSFHSPNASSIRKAISYEQLSLASVGSVERLEGKIVGMNPPQFASINEFKYCTLKLYFTQLLPNVPDKVLVPGVNCIEIVIPTRERICELFGVLNCQSDKISDILLLEKPDRISVEVERILWDNDKTASPGMAVWSLKNISTDTQAQAQVQVPAQSSASIDPSRTRMSKMARKDPTIEFCQLGLDTFETKYITMFGMLVSCSFDKPAFISFVFSDFTKNDIVQNYLYDRYLIDYENKLELNEGFKAIMYKNQFETFDSKLRKIFNNGLRDLQNGRDENLSQYGIVCKMNIKVKMYNGKLNAIVRECEPVPHSQISSIASPSQCEHLRLFYQRAFKRIGESAISRYFEEYRRFFPIHRNGSHLAKLRFDEVKHEPKKSPTTPALAEHIPDLNADVSSFDVKFTDISSLLDSSARLPRPQQTHKSNTLYSCEGRIIAIEYHASDLCFHITNELPLLQTRGLAPERVLQLHIITSKNFAYFFNRSSAYLQRQPLEEKYTQLAQFLGHSFKFNITSSLTLFPDTTVALQIWCPIECTFRELQQQLAHPKVAAAPDSGSLDCAINATVNPLRLLAAQNGVTVKKEEDNDDDAGAVPTS
partner: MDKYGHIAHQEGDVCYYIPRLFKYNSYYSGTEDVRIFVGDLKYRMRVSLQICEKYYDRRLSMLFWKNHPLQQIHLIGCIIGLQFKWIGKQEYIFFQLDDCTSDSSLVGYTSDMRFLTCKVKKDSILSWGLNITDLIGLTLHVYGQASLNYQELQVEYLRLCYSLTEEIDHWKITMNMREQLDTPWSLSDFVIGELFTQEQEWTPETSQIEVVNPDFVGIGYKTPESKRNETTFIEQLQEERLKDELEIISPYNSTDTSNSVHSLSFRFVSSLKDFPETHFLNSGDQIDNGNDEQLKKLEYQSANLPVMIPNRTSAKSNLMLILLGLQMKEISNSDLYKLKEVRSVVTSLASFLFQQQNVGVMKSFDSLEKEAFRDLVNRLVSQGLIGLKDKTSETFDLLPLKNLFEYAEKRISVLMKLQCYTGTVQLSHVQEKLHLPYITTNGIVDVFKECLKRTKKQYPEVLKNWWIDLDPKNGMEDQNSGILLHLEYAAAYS

Variants of: B1
Settings: with stn1_yeast STN1, P38960

Effect of a mutation on the interaction, disrupting interaction strength:
C383A;M463A
C383S;Y388A
C383S;L401A
P371S;C383S
